Patent US9593156B2 (priority 2012, dated 2017)
Square brackets hold non-standard residues; d marks the D form. Primed or numbered codes have the meaning given here. Ends that are not written are not given here. PEG4′ = PEG spacer of 4 units in the linker; PEG8′ = PEG spacer of 8 units in the linker

Tests used:
[1] = biological target: T1, type A insulin receptor (IR-A) (Homo sapiens, UniProt P06213); test: Receptor kinase activity (phosphorylation) assay, type A insulin receptor; assay type: cell-based
T1 construct: expressed in transfected cells; host or cells: HEK293

[2] = biological target: T2, type B insulin receptor (IR-B) (Homo sapiens, UniProt P06213); test: Receptor kinase activity (phosphorylation) assay, type B insulin receptor; assay type: cell-based; details: Table 17
T2 construct: expressed in transfected cells; host or cells: HEK293

[3] = blood glucose lowering in mice

## C8-PEG20K B^1(H5,Y16,L17)25-PEG8-K-PEG4-A^1(N18,N21) (GPEHLCGAELVDALYLVCGDRGFY[PEG8′]K(PEG 20 kDa)[PEG4′]GIVDECCFRSCDLRRLENYCN; ends and bridges not checked) [#38]
[1]; Table 12
  % Insulin Activity IR-A: 14.8%
[1]; Table 17
  Phosphorylation (EC50) % IR-A: 14.8%
[1]; result in words
  agonist character at the insulin receptor (type A): full agonist
[2]
  Phosphorylation (EC50) % IR-B: 2.0%
[3]
  duration of action: 24 h
